According to the supplement of paper PMC10567573:

B1: ACBD3 (parent)
chain: YVASHKIEKEEQEKKRKEEEERRR

Variants of: B1
Experiment: protein stability index of a GFP-peptide fusion (GPS, HEK-293T) (PSI 1-6); higher = more stable
Conditions: c terminus: a fixed tail appended
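Further: lentivirally expressed fusions sorted by FACS into six bins by GFP to DsRed ratio, PSI derived from sequencing read proportions per bin multiplied by bin number.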

Protein stability index, by site and new letter:
E13: P 2.02 | G 2.15 | Y 2.41 | F 2.39 | I 2.22 | C 2.66 | L 2.27 | V 2.93 | S 3.36 | H 2.25 | D 2.9 | K 1.73 | M 2.04 | N 2.52 | T 2.33
K15: M 2.6 | S 2.79 | V 2.74 | Y 2.16 | C 2.09 | Q 3.15 | P 2.4 | R 2.69 | N 2.62 | H 3.06 | D 2.73
K14: C 2.67 | T 2.44 | M 2.62 | V 3.09 | I 3.21 | W 2.69 | D 3.27 | Q 2.95 | H 2.22 | P 2.49 | G 2.79 | S 2.74 | L 3 | Y 2.27
K17: M 2.45 | H 2.74 | E 2.93 | Y 2.06 | S 3.09 | G 3.79 | T 2.35 | W 1.84 | Q 2.07 | F 2.32 | I 2.35 | C 2.41 | D 2.77 | A 2.88
E8: W 2.03 | N 2.36 | Y 2.32 | P 2.29 | C 2.42 | S 2.83 | V 2.1 | H 1.96 | Q 2.14 | L 2.33 | D 2.74 | M 1.75
E21: Y 2.15 | W 2.67 | M 2.04 | D 2.25 | F 2.45 | S 2.52 | I 2.57 | H 3.13 | A 1.54 | V 3.05 | N 2.07 | K 2.35 | Q 2.37
Q12: D 3.76 | R 2.26 | A 3.33 | P 2.31 | V 2.02 | H 2.27 | E 3.63 | S 1.82 | K 2.12 | T 2.52 | C 2.92 | I 3.33
E19: M 1.98 | W 2.19 | G 2.03 | H 2.44 | K 2.48 | A 2.6 | S 2.54 | R 2.25 | Q 2.61 | D 2.74 | C 2.53 | N 1.94 | Y 2.38 | I 3.02 | P 1.81
E20: H 2.39 | Q 2.36 | N 2.56 | I 2.58 | M 2.48 | F 2.5 | D 2.63 | V 1.82 | G 1.96 | A 2.81 | K 2.83 | R 1.91 | C 3.17 | T 2.57
R23: H 2.29 | L 2.7 | P 2.46 | E 3.35 | I 2.65 | M 2.24 | T 3.43 | W 2.02 | D 3.16 | Q 2.71 | A 2.85 | G 3.03 | N 2.74 | Y 2.64 | F 2.82 | K 2.74 | C 2.44
R22: E 3.02 | Y 2.87 | L 1.89 | D 3.24 | Q 3.11 | F 2.5 | H 2.42 | K 2.69 | G 2.68 | M 2.76 | N 3.14 | S 2.99 | V 2.89
Y1: M 5.6 | E 5.83 | H 5.57 | P 5.43 | G 4.73 | N 5.77 | Q 5.5 | T 5.43 | K 5.87 | A 5.78 | F 2.11 | C 4.93
R16: E 3.75 | P 2.6 | V 2.24 | Q 2.94 | I 2.69 | D 2.76 | L 3 | M 3.23 | W 2.27 | C 2.67 | S 2.65 | T 3.41 | A 3.02 | Y 2.74
I7: S 3.22 | R 2.67 | W 1.81 | F 2.53 | Q 2.25 | A 3.29 | C 3.86 | Y 2.36 | T 3.09 | L 2.37 | G 3.13 | E 2.89 | H 3.1 | P 3.35 | K 2.89 | M 2.56
E18: S 2.22 | V 1.95 | H 1.6 | T 2.41 | M 2.46 | L 2.16 | A 3.07 | C 2.12 | K 2.05 | Y 1.94 | R 2.26 | N 1.85 | P 2.25 | D 2.38
R24: L 2.75 | Y 2.42 | C 2.83 | N 3.67 | F 2.85 | H 3.01 | G 2.54 | T 2.27 | P 2.04 | K 2.65 | D 3.35 | S 2.7 | A 2.94 | Q 3.12
K9: D 3.61 | V 2 | E 3.42 | G 2.5 | L 3.07 | I 2.29 | F 2.72 | N 3.19 | R 1.84 | T 2.42 | Q 3.22 | C 2.5 | W 1.86
S4: W 1.49 | C 2.81 | N 2.16 | Q 3.14 | P 3.8 | G 2.39 | R 2.57 | E 3.05 | A 2.9 | H 2.62 | K 3.67 | V 3.28 | D 3.95
A3: P 1.47 | D 3.91 | M 3.14 | E 2.84 | V 3.36 | N 2.39 | Q 3.36 | T 2.98 | W 2.85 | Y 2.13 | H 2.15 | F 3.72 | S 3.04 | G 2.33 | K 2.95 | C 2.5 | I 2.61
V2: A 4.73 | G 5.36 | N 5.04 | M 5.36 | H 4.14 | F 5.16 | K 5.05 | L 5.22 | R 5.49 | Q 4.57 | I 4.51 | P 5.11 | D 5.36 | T 5.24
K6: D 4.14 | S 2.77 | Y 2.12 | H 3.21 | G 2.96 | N 2.7 | I 2.66 | Q 3.76 | L 2.66 | V 2.95 | E 3.67 | F 2.79
E10: K 2.46 | N 2.79 | C 2.19 | S 3.11 | I 2.1 | Q 1.88 | P 1.78 | G 1.9 | Y 2.08 | F 1.76 | R 1.87 | V 2.46 | M 2.42 | A 1.55
H5: V 3.05 | N 2.4 | S 3.07 | P 3.08 | K 2.61 | M 2.5 | G 1.92 | F 2.24 | Y 2.42 | Q 2.7 | I 3.02 | D 4.25 | E 4.24 | A 3.1
E11: H 3.12 | A 3.79 | S 2.57 | G 2.34 | K 1.71 | R 1.93 | W 2.67 | T 4.28 | P 1.76 | L 2.13 | M 2.2 | V 1.98 | I 2.24 | D 2.75 | Y 2.37 | Q 2.79 | F 3.47
